Assay results: the nanobody polyreactivity screen of Harvey et al. (2022)

Assay: yeast display, Sf9 membrane polyspecificity reagent, FACS + sequencing; frameworks hold sequencing errors
Method in brief: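 Sorting gates, low and high (top ~1%), were placed on anti-HA fluorescence to track expression and on streptavidin fluorescence to track reagent binding. A clone's polyreactivity label is taken from the gate it came out of. The reagent was 10% biotinylated, detergent-solubilized Sf9 membrane, applied for 1 hour at 4 °C to galactose-induced yeast display cells.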

Sequence	polyreactivity (PSR sort gate)
QVQLVESGGGLVQAGGSLRLSCAASGITFYKYAMGWYRQAPGKERELVASISNGGNTNYADSVKGRFTISSDNAKNTVYLQMNSLKPEDTAVYYCAAGRQWYSYYRNDYWGQGTQVTVSS	high polyreactivity
QVQLVESGGGLVQAGGSLRLSCAASGRIFSWNAMGWYRQAPGKERELVARITNGGSTYYADSVKGRFTISRDNAKNTVYLQMNSLKPEDTAVYYCAAKYRYYWSSKSKGDYWGQGTQVTVSS	high polyreactivity
QVQLVESGGGLVQAGGSLRLSCAASGSTLYSYAMGWYRQAPGKERELVAAISIGDSTNYADSVKGRFTISRDNAKNTVYLQMNSLKPVDTAVYYCAADWDESYSYRRYRHYDYWGQGTQVSVSS	low polyreactivity
QVQLVESGGGLVQAGGSLRLSCAASGSIFAYNAMGWYRQAPGKERELVAAISSGGRTKYADSVKGRFTISRDNAKNTVYLQMNSLKPEDTAVYYCAAESYTGKYSWVWKWYDYWGQGTQVTVSS	low polyreactivity
QVQLVESGGGLVQAGGSLRLRCAASGSIFTDYAMGGYRQAPGKERELVAVIDIDGSTYYADSVKGRFTISRDNAKNTVYLQMNSLKPEDTAVYDCAAGYTYYSLYGYWGQGTQVTGSS	low polyreactivity
QVQLVESVGGLVQAGGSLRLSGAASGSTFGRYAMGWSRQAPGKEREFVANISWSDGSTNYADSVKGRFTISRDHAKNTVYFQMNSLKPEDTAVYYCATGLGYTAFGKEVYDWHDYWGQGTQVTVSS	low polyreactivity
QVQHVESGGGLVQAGGSLRLSCAASGRTFYLNAMGWSRQAPGKARELVATISYTGDTTYYADSVKGRFTISRDNAKNTVYLQMNSLKPEDTAVYYCAKDYSLTQQRHAAYIVGSVDYWGQGTQVTVSS	high polyreactivity
QVQLVESGGGLVQAGGSLRLSCAASGSIFSGNAMGWYRQAPGKERELVASINRSGGSTYYADSVKGRFTISRDNAKNTVYLQMNSLKTEDTAVYYCAARRVWLAGYDSWGQGTQVTVSS	low polyreactivity
QVQLVESGGGLVQAGGSLRLSCAASGSTFGKNAMGWYRQAPGKERELVAAITSSGGRTYYADSVKGRFTISRDNAKNTVYLQMNSLKPEDTAVYYCNAVTRRRSLGPWPVEYDYWGQGTQVTVSS	high polyreactivity
QVHLVESGGGLVQAGGSLRLSCAASGGTFDKNAMGWYSQAPGKESEFVAAITYGGGSTYYADSVKGRFTISRDNAKNTVYLQMTSLKPEDSAVYYCAVAIITYPYATGSSYDYWGQGTQVTVSS	low polyreactivity
QVQLVESGGGLVQAGGSLRLSSAASGSTFLVYSMGWSRQAPGKERELVAAIRGAGSTNYADSVKGRFTISRDNAKNTVYLQMIRLKPEDTAVYYCAAYLLYTPSMDYWGQGTQVTVSS	low polyreactivity
QVQLVESGGGLVQAGGSLRLSCAASGSTFQINAMGWYRQATGTERELGAAIDGGGDTYYADSVKGRFTISRDNAKNTFYLQMNSLKPEDTAVYYCNARSWARKSNGGSRIRYDYWGQGTQVTVSS	low polyreactivity
QVQLVESGRGIVQAGGSLRLSCAASGRIFRVNAMGWYRQAPGKERELVATISYSGGSTYADSVKGRFTISRDNAKNTVYLQMNSLKPEDTAVYYCAARPYYRYYRYPYGYWGQGTQVTVSS	high polyreactivity
QVQLVESGGGLVQAGGSLRLSCAASGRTFGYNAMGWYRQAPGKESEFVAAISWSGGRTYYADSVKGRFTISRDNAKNTVYLQMNSLKPEDTAVYYCAAGFGDGPGNGYYTRYSWDDDYWGQGTQVTVSS	low polyreactivity
QVQLVESGGGLVQAGGSLRLSCAASGFTFSFYAMGWYRQAPGKERELVAAIDRSGGSTYYADSVKGRFTISRDNAKNTVYLQMNSLKPEDTAVYYCAATVFYGYYYWGQGTQVTVSS	high polyreactivity
QVQLVESGGGLVQAGGSLRLSCAASGSLFTGYAMGWYRQAPGKERELVAAISSSGSTTYYADSVKGRFTISRDNAKNTVYLQMNSLKPEDTAVYYCATRVNYGYYYWGQGSQVTVSS	high polyreactivity
QVQLVESGGGLVQAGGSLRLSCAASGRIFSTYVMGWYRQAPGKERELVAAITWSGGSTYYADSVKGRFTISRDNEKNTVYLQMNSLKPEDTAVYYCAADEIYGYDYWGQGTQVTVSS	high polyreactivity
QVQLVESGGGLVQGGGSLRLSCAASGSIFPGNAMGCYRQAPGKERELLAVIDFSGASTYYADSLKGRFTISRDNAKNTVYLQMKSLKPEATAVYWGQGTQVTVSS	low polyreactivity
QVQLQEGRGLVQAGGSLRLSSAASGYISSRPAMGWYRQAPCKERSFVATIADGTSTYYADSVKGRFTISRDNAINTVYLQMNSLKPEDTAVYYCAAAYNTEFYLSYWGQGTQVTVSC	high polyreactivity
QVQLVESGGGLVQAGGSLSLSCAASGFIFRGNGMGWYRQAPGKERELVAAIDSTDSTNYADSVKGRFTISRDNAKNTVYLQMNSLKPEDTAVYYCAAGVSWYGPYDYLWFYAFDYWGQGTQVTVSS	low polyreactivity
QVQLVESGGGLVQAGGSLRLSCAASGRTFKSYAMGWYRQAPWKESELVAAISYSGGSTYYADSVKGRVTISRDNAKNTVYLQMNSLKPEDTAVYYCNVVSKVIRGLSGDGYWGVGTQVTVSS	high polyreactivity
QVQLVESGGGLVQAGGSLRLSCAASGLIFSYYTMGWYRQAPGKERELVAAISSSAGSTYYADSVKGRCTISRDNAKNTVYCQMNSLKPEDTAVYYCNVRTLVQHHSSYSSRYESWGQGTHVTVSS	high polyreactivity

Sequence	polyreactivity (PSR sort gate)
QFQLVESGGGLVQAGGSLRLSCASSGSIFWYYAMGWYRQAPGKERELVATITSGGRTDYADSVKGRFTISRDNAKNTVYLQMNSLKPEDTAVYFCAAGPRWRPRSYDYWGHGTQVTVSS	high polyreactivity
QVQLVESGGGLVQSGGSLRLSCAASGFIFGEYTMGWNRQAPGKEREFVAAISWSGGSTSYADSVKGRFTISRDNAKNTVYLQMNSLKPEDTAVYYCAARYGSDYDYWGQGTQVTVSS	low polyreactivity
QDQLVESRAGLVQAGGSLRLSCADTGNIFDFNAIGSYRQAPGKERELVAAISQRGTRTYYADSVKGRFTISRDNAKNTVYLQMKSLKPDYTAVYYCNRGGWRQYDSWGQGTQVTVSS	high polyreactivity
QVQLVESGRGLVQAGGSLRLSCAASGRIFYRYVMGWYRQAPGKERELVAAITSSGGSTYYADSVKGRFTISRDNAKNTVYFQMNSLKPEDTAVYYCSADRYTRYRYNYWGQGTQVTVSS	high polyreactivity
QVQLVESGGGLVQAGGSLRLSCAASGSTFNTYAMGWYRQAPGKERELVAAITWRGGRTYYADSVKGRFTISRDNAKNTVYLQMISLKPEDTAVYYCNTLRPRLDGVYGYDYWGQGSQVTVSS	high polyreactivity
QVQLVESAGGLVQAGGSLRLSGAASGSTFHNYAVGWSRQAPGKERELVGGISVRGGGTYYADSVKGRFTISRDNAKNTVYLQMNSLKPEDTAVYYCAQRSRYYYRYDYWGQGTQVTVSS	high polyreactivity
QVQLVESGGGLVQAGGSLRLSCAASGRTFFDYTMGWYRPAPGKERELVAAITGGDGSTYYADSVKGRFTISRDNAKNTVYLQMNSLKPEDTAVYYCAASVWYNPMDYWGQVTQVTVSS	low polyreactivity
QVQLVESGGGVGQAGGSLRLSCAASGSNFKYYAMGWYRPAPGKERELVAVITSGGSTYYADSVKGRFTISRDNAKNTVYLQMNSLKPEDTAVYDCAAGVRAYNWGEYDYWGQGTQVTVSS	low polyreactivity
QVQLVESGGGLVQAGGSLRLSCAASGRIFGVNAMGWYRQAPGKERELVAAISVSGDSTYYADSVKGRFTISRDNAKNTVYLQMNSLKPEDTAVYYCNAGYTFVPADLTDEYYWGQGTQVTVSS	low polyreactivity
QVQLVESGGGLVQAGGSLRLSCAASGSIFGGYGMGCYRQAPGKERALVAAITSGSSTYYADSVKGRFTISRDNAKKTVYLQMPSLTPEDTAGYYCNADYAYYRDVYSPYDSWGQGTQVTVSS	low polyreactivity
QVQLVESGGGLVQAGGSLRLSCAASGFTFDRYAMGWYRQAPGKERELVAAISRSGGSTHYADSVKGRFTISRDNAKNTVYLQMNSLKPEDTAVYYCNKRWYYDGYDYWGQGTQVTVSS	high polyreactivity
QVLLVESGRGIVQAGGSLRLSCAASGGTFQPYAMGWYRQDTGKERELVAANSLNTGSTYYADSVKGRFTISRDNAKNTVYLQMNSLKPEDTAVDYCAVKWFYGGYDYWGQGTQVTVSS	low polyreactivity
QMQLQESGGGLVQAGGSQRLSCAASDSISIGAGMGWYRQAPGKERELVAGISVGTSTNYADSVNGRFTISRVNAKNTVYLQMNSLKPEDTAVYYCAKGYRRVYGPFYYWGQGTQVTVSS	low polyreactivity
QVQLVESGGGLVQAGGSLRLSCAASGRIISHNAMGWYRQAPGKERELVAVISNGGSTYYADSVKGRFTISRDNAKNTVYLQMNSLKPEDTAVYYCAARYTPQSGFYYRGQGTQVTVSS	low polyreactivity
QVQLVESGGALVQAGGSLRISCAASGFTFHKNAMGWYRQAPGKERELVAAITYRGGSTYYADSVKGRFTISRDNAKNTVYLQMNSLKPEDTSVYYCAAELRPYITYDGPRKKFYFWGQGTQVTVSS	high polyreactivity
QVQLVESGGGLVQAGGSLRLSCAASGSIFVVNAMGWYRPAPGKERELVAAINWSDGSTYYADSVKGRFTISRDTAKNTVYLQLTSLKPEDTAVDYCAAEVPYFYFEGWNYDYWGQGTQVTVSS	high polyreactivity
QVQLLESGGGLVQAGGSLRLSCAASGSTLKLNAMGWYRQAPGKDRELVAAITRSGGSTNYADSVKGRFTISRDNAKNTVSLQMNSLKPEDTAVYDCAADVLWDEFGYWGQGTQVTVSS	low polyreactivity
QVQLVESGGGLVQAGGSLRLSCAASGSIFRGYAMGWYRPAPGKERELVAAISSSGGTTYYADSVKGRFTISRDNAKNTVYLQMNSLKPEDTAVYYCNARHPYTGGRRYPYTRYDYWGQGTQVTVSS	high polyreactivity
QVQLVESGGGLVQAGGSLRLSCAASGFTFAYNAMGWYRQAPGKERELVATISWSGGSPYYADSVKGRFTISRDNAKNTVYLQMNSLKPEDTAVYYCATTIFYTYYGLYDYWGQGTQVTVSS	high polyreactivity
QVKLVESAAGLVQPGGSHRLSCAASGRIFSYYAMGWSRQAPGKDRELVAAISRTGGTTYYADSVKGRFTSSRDNAKNTVYLQMNSLKPEDTAVYYCNAVKAPYLSYDYWGKGTQVTVSS	high polyreactivity
QVQLVESGGGIVQAGGSLRLSCAASGRIFLRNAMGWYRQAPGYEREFVAAMRYSGGRTYYADSVKGRFTISRDNAKNTVYLQMISLNPEDTAVYYCAAEGSSRSSYRKYDYWGQGSQVTVSS	high polyreactivity
